One block for each binder: values may come before it.
Legend:
[1] = molecular target: ankB in mouse brain homogenate (mouse, UniProt Q8C8R3 1-3898, limits assumed); test: co-immunoprecipitation (ankG immunoprecipitate) from mouse brains, Western blot
From the text: (§1) FIG. 6: AnkG interacts directly with APP in the brain [0020] (a) AnkG and APP immunoprecipitates from human frontal cortex were immunoblotted with specific antibodies against ankG, APP and ankB. Immunoprecipitates with non-immune IgG served as a negative control. Note that APP co-immunoprecipitated with ankG and vice versa. Human brain homogenate (C) was used as positive control. (b) AnkG immunoprecipitates were obtained from arcAbeta (TG), non-transgenic (NTG) littermates and APP deficient (−/−) mouse brains. Note that APP, but not ankB, co-immunoprecipitated with ankG. Mouse brain homogenate (C) was used as positive control. (c) Primary rat hippocampal cultures were stained with antibodies against the C-terminal portion of APP (green) and with antibodies against ankG (red). Note the presence of both ankG and APP in the AIS. Scale bar=10 μm (upper panels) and Scale bar=30 μm (lower panels). […] AnkG binding to BSA-coated wells (2 mg/ml) served as negative control. Mean values (OD₄₅₀)±SEM are shown (n=6). (e) AnkG and APP immunoprecipitates from human AD hippocampus were immunoblotted with specific antibodies against APP and Caspr and L1. Immunoprecipitates with non-immune IgG served as a negative control. As already shown in (a) APP co-immunoprecipitated with ankG. Note the absence of Caspr and L1 from the immunoprecipitates. AD hippocampus homogenate (+) was used as positive control. […]

[2] = molecular target: T1, ankG in human brain homogenate (human, UniProt Q12955 1-4377, limits assumed); test: co-immunoprecipitation (ankG immunoprecipitate) from human AD hippocampus, Western blot
T1 construct: Endogenous protein in co-immunoprecipitation; also called ankG (human frontal cortex, hippocampus, AD hippocampus)
From the text: as §1

T1 sequence (Q12955 whole entry): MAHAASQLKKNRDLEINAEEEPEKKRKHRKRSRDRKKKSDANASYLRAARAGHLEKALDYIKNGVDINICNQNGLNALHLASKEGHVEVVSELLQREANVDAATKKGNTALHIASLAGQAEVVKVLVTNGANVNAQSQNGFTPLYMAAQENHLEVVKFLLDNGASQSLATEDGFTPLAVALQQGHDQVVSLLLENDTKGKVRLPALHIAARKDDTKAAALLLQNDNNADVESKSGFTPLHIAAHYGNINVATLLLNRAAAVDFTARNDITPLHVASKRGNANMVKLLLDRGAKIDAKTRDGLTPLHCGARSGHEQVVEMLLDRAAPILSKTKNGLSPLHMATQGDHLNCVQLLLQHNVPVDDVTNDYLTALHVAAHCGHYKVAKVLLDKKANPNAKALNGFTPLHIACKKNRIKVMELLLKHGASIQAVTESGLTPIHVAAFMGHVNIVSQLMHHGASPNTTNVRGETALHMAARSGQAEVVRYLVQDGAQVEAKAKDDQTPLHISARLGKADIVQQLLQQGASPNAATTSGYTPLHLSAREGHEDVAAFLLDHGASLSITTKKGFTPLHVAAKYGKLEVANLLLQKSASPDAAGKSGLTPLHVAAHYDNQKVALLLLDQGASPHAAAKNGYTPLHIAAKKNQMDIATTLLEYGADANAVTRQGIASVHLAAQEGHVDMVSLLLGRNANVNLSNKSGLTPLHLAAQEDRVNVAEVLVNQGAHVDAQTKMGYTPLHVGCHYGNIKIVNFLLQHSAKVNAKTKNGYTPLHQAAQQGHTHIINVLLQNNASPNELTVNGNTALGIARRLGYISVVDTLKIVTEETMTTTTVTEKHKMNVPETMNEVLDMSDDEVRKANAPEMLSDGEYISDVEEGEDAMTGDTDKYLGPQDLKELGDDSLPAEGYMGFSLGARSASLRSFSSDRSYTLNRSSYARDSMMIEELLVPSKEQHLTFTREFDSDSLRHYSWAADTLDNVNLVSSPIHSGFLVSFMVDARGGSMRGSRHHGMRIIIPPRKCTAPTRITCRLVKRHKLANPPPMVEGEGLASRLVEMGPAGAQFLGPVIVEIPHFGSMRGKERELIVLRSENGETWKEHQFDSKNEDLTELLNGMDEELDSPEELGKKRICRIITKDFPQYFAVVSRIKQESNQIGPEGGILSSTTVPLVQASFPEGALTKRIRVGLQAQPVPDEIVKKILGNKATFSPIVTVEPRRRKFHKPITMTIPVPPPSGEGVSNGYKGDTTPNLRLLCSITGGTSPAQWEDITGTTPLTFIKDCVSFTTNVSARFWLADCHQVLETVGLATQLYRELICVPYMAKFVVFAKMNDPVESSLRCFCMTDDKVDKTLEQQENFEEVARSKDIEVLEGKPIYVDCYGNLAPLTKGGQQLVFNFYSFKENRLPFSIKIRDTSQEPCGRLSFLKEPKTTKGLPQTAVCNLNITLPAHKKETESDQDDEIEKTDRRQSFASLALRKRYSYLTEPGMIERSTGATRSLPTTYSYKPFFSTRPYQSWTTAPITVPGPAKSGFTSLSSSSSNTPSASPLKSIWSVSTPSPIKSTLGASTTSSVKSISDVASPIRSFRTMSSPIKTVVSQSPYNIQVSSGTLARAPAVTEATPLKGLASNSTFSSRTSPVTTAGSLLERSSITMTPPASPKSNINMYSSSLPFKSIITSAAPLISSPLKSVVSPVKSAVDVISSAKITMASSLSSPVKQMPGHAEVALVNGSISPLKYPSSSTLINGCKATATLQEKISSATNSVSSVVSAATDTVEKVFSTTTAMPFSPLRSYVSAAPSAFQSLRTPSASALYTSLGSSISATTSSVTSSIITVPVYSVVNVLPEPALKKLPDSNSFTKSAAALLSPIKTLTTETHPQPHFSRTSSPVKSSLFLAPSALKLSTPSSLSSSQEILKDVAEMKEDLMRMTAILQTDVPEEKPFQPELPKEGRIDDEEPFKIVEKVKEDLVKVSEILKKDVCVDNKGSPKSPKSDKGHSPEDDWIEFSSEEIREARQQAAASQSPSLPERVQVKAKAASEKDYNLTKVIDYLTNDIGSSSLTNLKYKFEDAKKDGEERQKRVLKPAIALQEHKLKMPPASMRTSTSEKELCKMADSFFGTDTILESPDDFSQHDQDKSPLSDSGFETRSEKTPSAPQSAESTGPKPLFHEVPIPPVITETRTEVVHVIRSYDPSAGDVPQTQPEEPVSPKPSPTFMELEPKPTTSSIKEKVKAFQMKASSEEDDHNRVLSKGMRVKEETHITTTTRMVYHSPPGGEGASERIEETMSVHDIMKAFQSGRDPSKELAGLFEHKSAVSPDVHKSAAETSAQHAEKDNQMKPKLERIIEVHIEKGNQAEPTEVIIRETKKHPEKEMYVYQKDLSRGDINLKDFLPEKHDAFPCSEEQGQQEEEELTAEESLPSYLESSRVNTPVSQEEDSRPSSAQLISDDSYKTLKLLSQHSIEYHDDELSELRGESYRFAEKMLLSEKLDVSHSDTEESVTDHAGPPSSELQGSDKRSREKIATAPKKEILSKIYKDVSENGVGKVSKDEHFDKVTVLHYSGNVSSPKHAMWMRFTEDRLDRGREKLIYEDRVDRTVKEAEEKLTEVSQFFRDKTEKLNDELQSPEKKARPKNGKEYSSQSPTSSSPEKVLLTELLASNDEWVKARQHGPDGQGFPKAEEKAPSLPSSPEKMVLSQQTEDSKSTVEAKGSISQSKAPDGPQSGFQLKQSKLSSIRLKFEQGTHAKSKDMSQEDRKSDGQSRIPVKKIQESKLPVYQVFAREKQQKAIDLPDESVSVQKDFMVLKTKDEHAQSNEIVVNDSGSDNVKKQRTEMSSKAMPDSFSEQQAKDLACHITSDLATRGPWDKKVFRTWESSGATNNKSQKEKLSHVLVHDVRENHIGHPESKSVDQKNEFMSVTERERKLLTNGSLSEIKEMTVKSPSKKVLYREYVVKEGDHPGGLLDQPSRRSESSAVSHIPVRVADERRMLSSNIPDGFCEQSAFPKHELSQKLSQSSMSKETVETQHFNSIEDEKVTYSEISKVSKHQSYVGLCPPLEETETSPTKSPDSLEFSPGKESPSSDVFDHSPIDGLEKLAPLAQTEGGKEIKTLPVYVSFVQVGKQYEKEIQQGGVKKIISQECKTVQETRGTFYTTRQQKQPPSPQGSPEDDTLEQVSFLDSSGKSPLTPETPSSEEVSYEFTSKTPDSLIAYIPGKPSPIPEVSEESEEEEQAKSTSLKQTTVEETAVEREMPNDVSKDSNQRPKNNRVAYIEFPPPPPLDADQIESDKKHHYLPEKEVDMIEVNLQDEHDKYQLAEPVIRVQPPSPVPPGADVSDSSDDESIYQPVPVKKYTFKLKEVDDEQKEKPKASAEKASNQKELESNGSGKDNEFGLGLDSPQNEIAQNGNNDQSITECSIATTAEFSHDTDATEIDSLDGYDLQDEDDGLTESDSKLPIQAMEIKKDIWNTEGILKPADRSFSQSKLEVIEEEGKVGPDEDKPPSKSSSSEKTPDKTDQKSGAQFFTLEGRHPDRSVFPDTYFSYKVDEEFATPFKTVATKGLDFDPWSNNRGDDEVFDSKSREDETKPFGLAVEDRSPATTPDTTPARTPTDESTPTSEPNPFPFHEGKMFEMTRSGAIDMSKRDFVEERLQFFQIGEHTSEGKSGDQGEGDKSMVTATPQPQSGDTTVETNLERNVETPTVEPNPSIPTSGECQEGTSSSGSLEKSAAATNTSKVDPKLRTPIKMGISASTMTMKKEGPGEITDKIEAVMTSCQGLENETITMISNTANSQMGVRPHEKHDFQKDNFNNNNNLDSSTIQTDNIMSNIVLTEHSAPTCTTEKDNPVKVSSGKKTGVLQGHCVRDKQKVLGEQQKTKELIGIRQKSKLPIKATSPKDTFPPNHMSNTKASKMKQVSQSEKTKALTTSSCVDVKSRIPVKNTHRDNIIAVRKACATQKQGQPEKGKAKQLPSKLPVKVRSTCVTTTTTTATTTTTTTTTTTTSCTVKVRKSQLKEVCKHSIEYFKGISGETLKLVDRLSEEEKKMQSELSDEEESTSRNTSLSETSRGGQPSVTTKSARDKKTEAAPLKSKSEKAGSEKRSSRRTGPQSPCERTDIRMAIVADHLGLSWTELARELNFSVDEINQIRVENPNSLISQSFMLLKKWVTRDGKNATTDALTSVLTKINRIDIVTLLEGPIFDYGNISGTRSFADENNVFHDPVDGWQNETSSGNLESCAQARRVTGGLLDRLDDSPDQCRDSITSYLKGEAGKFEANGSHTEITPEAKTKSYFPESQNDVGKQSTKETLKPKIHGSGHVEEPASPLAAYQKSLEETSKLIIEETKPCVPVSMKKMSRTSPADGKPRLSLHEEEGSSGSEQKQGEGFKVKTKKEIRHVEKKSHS

binding result [1]: no binding
B1: ankG in mouse brain homogenate (other, UniProt G5E8K5 1-1961, looked up)
chain: MSEEPKEKPAKPAHRKRKGKKSDANASYLRAARAGHLEKALDYIKNGVDVNICNQNGLNALHLASKEGHVEVVSELLQREANVDAATKKGNTALHIASLAGQAEVVKVLVTNGANVNAQSQNGFTPLYMAAQENHLEVVRFLLDNGASQSLATEDGFTPLAVALQQGHDQVVSLLLENDTKGKVRLPALHIAARKDDTKAAALLLQNDTNADVESKSGFTPLHIAAHYGNINVATLLLNRAAAVDFTARNDITPLHVASKRGNANMVKLLLDRGAKIDAKTRDGLTPLHCGARSGHEQVVEMLLDRSAPILSKTKNGLSPLHMATQGDHLNCVQLLLQHNVPVDDVTNDYLTALHVAAHCGHYKVAKVLLDKKASPNAKALNGFTPLHIACKKNRIRVMELLLKHGASIQAVTESGLTPIHVAAFMGHVNIVSQLMHHGASPNTTNVRGETALHMAARSGQAEVVRYLVQDGAQVEAKAKDDQTPLHISARLGKADIVQQLLQQGASPNAATTSGYTPLHLAAREGHEDVAAFLLDHGASLSITTKKGFTPLHVAAKYGKLEVASLLLQKSASPDAAGKSGLTPLHVAAHYDNQKVALLLLDQGASPHAAAKNGYTPLHIAAKKNQMDIATSLLEYGADANAVTRQGIASVHLAAQEGHVDMVSLLLSRNANVNLSNKSGLTPLHLAAQEDRVNVAEVLVNQGAHVDAQTKMGYTPLHVGCHYGNIKIVNFLLQHSAKVNAKTKNGYTALHQAAQQGHTHIINVLLQNNASPNELTVNGNTALAIARRLGYISVVDTLKVVTEEIMTTTTITEKHKMNVPETMNEVLDMSDDEVRKASAPEKLSDGEYISDGEEGDKCTWFKIPKVQEVLVKSEDAITGDTDKYLGPQDLKELGDDSLPAEGYVGFSLGARSASLRSFSSDRSYTLNRSSYARDSMMIEELLVPSKEQHLTFTREFDSDSLRHYSWAADTLDNVNLVSSPVHSGFLVSFMVDARGGSMRGSRHHGMRIIIPPRKCTAPTRITCRLVKRHKLANPPPMVEGEGLASRLVEMGPAGAQFLGPVIVEIPHFGSMRGKERELIVLRSENGETWKEHQFDSKNEDLAELLNGMDEELDSPEELGTKRICRIITKDFPQYFAVVSRIKQESNQIGPEGGILSSTTVPLVQASFPEGALTKRIRVGLQAQPVPEETVKKILGNKATFSPIVTVEPRRRKFHKPITMTIPVPPPSGEGVSNGYKGDATPNLRLLCSITGGTSPAQWEDITGTTPLTFIKDCVSFTTNVSARFWLADCHQVLETVGLASQLYRELICVPYMAKFVVFAKTNDPVESSLRCFCMTDDRVDKTLEQQENFEEVARSKDIEVLEGKPIYVDCYGNLAPLTKGGQQLVFNFYSFKENRLPFSIKIRDTSQEPCGRLSFLKEPKTTKGLPQTAVCNLNITLPAHKKAEKADRRQSFASLALRKRYSYLTEPSMSPQSPCERTDIRMAIVADHLGLSWTELARELNFSVDEINQIRVENPNSLISQSFMLLKKWVTRDGKNATTDALTSVLTKINRIDIVTLLEGPIFDYGNISGTRSFADENNVFHDPVDGHPSFQVELETPMGLYCTPPNPFQQDDHFSDISSIESPFRTPSRLSDGLVPSQGNIEHPTGGPPVVTAEDTSLEDSKMDDSVTVTDPADPLDVDESQLKDLCQSECAQCWASVPGIPNDGRQAEPLRPQTRKVGMSSEQQEKGKSGPDEEVTEDKVKSLFEDIQLEEVEAEEMTEDQGQAMLNRVQRAELAMSSLAGWQNETPSGSLESPAQARRLTGGLLDRLDDSSDQARDSITSYLTGEPGKIEANGNHTAEVIPEAKAKPYFPESQNDIGKQSIKENLKPKTHGCGRTEEPVSPLTAYQKSLEETSKLVIEDAPKPCVPVGMKKMTRTTADGKARLNLQEEEGSTRSEPKQGEGYKVKTKKEIRNVEKKTH
notes: also called ankG (arcAbeta, non-transgenic and APP deficient mouse brains)

binding result [2]: no binding
B2: Caspr in human AD hippocampus homogenate (other, UniProt P78357 20-1384, looked up)
chain: WGYYGCDEELVGPLYARSLGASSYYSLLTAPRFARLHGISGWSPRIGDPNPWLQIDLMKKHRIRAVATQGSFNSWDWVTRYMLLYGDRVDSWTPFYQRGHNSTFFGNVNESAVVRHDLHFHFTARYIRIVPLAWNPRGKIGLRLGLYGCPYKADILYFDGDDAISYRFPRGVSRSLWDVFAFSFKTEEKDGLLLHAEGAQGDYVTLELEGAHLLLHMSLGSSPIQPRPGHTTVSAGGVLNDQHWHYVRVDRFGRDVNFTLDGYVQRFILNGDFERLNLDTEMFIGGLVGAARKNLAYRHNFRGCIENVIFNRVNIADLAVRRHSRITFEGKVAFRCLDPVPHPINFGGPHNFVQVPGFPRRGRLAVSFRFRTWDLTGLLLFSRLGDGLGHVELTLSEGQVNVSIAQSGRKKLQFAAGYRLNDGFWHEVNFVAQENHAVISIDDVEGAEVRVSYPLLIRTGTSYFFGGCPKPASRWDCHSNQTAFHGCMELLKVDGQLVNLTLVEGRRLGFYAEVLFDTCGITDRCSPNMCEHDGRCYQSWDDFICYCELTGYKGETCHTPLYKESCEAYRLSGKTSGNFTIDPDGSGPLKPFVVYCDIRENRAWTVVRHDRLWTTRVTGSSMERPFLGAIQYWNASWEEVSALANASQHCEQWIEFSCYNSRLLNTAGGYPYSFWIGRNEEQHFYWGGSQPGIQRCACGLDRSCVDPALYCNCDADQPQWRTDKGLLTFVDHLPVTQVVIGDTNRSTSEAQFFLRPLRCYGDRNSWNTISFHTGAALRFPPIRANHSLDVSFYFRTSAPSGVFLENMGGPYCQWRRPYVRVELNTSRDVVFAFDVGNGDENLTVHSDDFEFNDDEWHLVRAEINVKQARLRVDHRPWVLRPMPLQTYIWMEYDQPLYVGSAELKRRPFVGCLRAMRLNGVTLNLEGRANASEGTSPNCTGHCAHPRLPCFHGGRCVERYSYYTCDCDLTAFDGPYCNHDIGGFFEPGTWMRYNLQSALRSAAREFSHMLSRPVPGYEPGYIPGYDTPGYVPGYHGPGYRLPDYPRPGRPVPGYRGPVYNVTGEEVSFSFSTSSAPAVLLYVSSFVRDYMAVLIKDDGTLQLRYQLGTSPYVYQLTTRPVTDGQPHSINITRVYRNLFIQVDYFPLTEQKFSLLVDSQLDSPKALYLGRVMETGVIDPEIQRYNTPGFSGCLSGVRFNNVAPLKTHFRTPRPMTAELAEALRVQGELSESNCGAMPRLVSEVPPELDPWYLPPDFPYYHDEGWVAILLGFLVAFLLLGLVGMLVLFYLQNHRYKGSYHTNEPKAAHEYHPGSKPPLPTSGPAQVPTPTAAPNQAPASAPAPAPTPAPAPGPRDQNLPQILEESRSE

— patent US20140044644A1 (UNIVERSITY OF ZURICH, published 2014)
